According to US20220204643A1 (published 2022):
One block for each binder: values may come before it.

Tests used:
[1] = target: T1, HSPA (Hsp70) binding protein 1, transcript variant 2 (human, UniProt Q9NZL4 1-359)
T1 construct: also called HSPBP1
T1 sequence: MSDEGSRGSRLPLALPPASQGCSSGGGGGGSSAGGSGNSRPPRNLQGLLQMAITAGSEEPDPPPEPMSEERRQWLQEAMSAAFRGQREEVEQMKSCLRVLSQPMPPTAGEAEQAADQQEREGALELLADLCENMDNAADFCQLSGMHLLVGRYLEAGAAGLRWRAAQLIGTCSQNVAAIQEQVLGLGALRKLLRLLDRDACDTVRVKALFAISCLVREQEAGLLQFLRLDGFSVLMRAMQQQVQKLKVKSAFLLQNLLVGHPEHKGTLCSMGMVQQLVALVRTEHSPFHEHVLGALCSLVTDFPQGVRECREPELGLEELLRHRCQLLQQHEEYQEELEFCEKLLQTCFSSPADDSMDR

[2] = target: T2, heat shock protein family A (Hsp70) member 2 (human, UniProt P54652 1-639)
T2 construct: also called HSPA2
T2 sequence (P54652 whole entry): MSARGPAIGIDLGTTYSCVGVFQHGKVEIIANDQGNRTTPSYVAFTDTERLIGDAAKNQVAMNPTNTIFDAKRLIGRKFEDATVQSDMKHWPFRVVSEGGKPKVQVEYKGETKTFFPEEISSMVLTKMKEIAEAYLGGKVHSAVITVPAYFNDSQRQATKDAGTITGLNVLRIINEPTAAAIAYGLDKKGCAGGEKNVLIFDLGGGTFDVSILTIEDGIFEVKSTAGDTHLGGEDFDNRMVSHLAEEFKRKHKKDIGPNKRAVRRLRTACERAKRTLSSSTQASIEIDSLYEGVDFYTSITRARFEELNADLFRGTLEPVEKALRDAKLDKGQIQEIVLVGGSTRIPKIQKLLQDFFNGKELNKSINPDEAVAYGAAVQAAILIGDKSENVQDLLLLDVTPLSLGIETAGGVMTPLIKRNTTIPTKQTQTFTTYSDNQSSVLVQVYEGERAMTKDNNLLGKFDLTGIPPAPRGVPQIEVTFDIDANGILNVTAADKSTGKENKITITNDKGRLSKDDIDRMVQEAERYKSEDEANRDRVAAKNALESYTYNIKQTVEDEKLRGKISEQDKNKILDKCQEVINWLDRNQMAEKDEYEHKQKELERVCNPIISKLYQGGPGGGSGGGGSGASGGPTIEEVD

[3] = target: T3, BCL2 associated athanogene 2 (human, UniProt O95816 2-211)
T3 construct: also called BAG2
T3 sequence (O95816 2-211 limits assumed): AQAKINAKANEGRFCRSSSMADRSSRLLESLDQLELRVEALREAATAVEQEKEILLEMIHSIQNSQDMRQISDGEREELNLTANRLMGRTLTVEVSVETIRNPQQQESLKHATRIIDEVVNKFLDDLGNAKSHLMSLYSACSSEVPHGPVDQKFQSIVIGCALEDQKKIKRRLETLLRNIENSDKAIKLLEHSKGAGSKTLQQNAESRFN

[4] = target: T4, NFKB inhibitor beta, transcript variant 1 (human, UniProt Q15653 1-356)
T4 construct: also called NFKBIB
T4 sequence: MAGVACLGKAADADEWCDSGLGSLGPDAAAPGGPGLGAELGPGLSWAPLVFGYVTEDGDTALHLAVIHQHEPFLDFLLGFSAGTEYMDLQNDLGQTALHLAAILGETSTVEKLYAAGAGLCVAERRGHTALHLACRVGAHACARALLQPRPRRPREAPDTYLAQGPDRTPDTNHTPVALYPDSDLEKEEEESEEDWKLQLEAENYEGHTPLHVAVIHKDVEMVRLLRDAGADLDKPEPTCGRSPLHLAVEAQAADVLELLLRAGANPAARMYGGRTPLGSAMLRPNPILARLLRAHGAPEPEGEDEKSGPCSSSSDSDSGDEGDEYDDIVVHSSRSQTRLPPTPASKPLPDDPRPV

[5] = target: T5, cyclin dependent kinase 2 associated protein 2, transcript variant 1 (human, UniProt O75956 1-126)
T5 construct: also called CDK2AP2
T5 sequence: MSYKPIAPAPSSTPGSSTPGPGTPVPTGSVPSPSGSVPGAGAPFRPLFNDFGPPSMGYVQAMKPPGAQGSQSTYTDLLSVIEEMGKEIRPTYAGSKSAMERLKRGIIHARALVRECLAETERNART

chymotrypsinogen B2 = target: T6, chymotrypsinogen B2 (human, UniProt Q6GPI1 19-263, limits assumed)
T6 construct: also called CTRB2
T6 sequence (Q6GPI1 19-263 limits assumed): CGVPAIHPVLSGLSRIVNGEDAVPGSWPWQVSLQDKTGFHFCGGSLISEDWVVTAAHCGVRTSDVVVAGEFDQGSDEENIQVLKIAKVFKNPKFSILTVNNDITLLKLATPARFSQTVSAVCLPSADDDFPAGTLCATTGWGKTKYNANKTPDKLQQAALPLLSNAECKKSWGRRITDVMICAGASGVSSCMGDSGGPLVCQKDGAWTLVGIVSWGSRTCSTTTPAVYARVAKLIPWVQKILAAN

[6] = target: T7, HAUS augmin like complex subunit 1, transcript variant 1 (human, UniProt Q96CS2 1-278)
T7 construct: also called HAUS1
T7 sequence: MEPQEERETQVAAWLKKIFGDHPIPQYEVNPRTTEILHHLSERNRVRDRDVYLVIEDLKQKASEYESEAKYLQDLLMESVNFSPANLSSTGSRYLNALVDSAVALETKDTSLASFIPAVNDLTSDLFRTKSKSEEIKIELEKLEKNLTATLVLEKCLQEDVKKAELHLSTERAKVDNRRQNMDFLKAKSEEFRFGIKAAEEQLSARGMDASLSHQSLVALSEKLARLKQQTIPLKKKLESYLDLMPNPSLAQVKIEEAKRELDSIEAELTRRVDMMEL

[7] = target: T8, transforming growth factor beta induced (human, UniProt Q15582 24-683, limits assumed)
T8 construct: also called TGFBI
T8 sequence: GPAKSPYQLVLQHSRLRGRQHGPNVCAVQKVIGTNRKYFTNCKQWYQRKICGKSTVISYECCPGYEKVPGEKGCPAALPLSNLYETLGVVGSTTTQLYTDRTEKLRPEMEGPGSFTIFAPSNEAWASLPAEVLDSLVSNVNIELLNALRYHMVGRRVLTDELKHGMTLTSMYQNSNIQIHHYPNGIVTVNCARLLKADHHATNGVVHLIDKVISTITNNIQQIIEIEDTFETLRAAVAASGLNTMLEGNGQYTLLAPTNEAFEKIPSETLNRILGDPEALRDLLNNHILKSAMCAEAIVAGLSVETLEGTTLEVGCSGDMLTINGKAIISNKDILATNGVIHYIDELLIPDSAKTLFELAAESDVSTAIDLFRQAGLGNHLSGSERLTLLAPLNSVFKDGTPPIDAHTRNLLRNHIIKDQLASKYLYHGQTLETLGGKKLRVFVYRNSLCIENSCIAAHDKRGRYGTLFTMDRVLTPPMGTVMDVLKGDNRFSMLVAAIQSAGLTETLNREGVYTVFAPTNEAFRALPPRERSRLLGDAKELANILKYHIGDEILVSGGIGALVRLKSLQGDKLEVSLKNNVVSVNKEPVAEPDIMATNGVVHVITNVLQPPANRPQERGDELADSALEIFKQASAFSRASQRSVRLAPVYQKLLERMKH

[8] = target: BCL2 apoptosis regulator, transcript variant alpha (human, UniProt P10415 1-239)
Sequence of BCL2 apoptosis regulator, transcript variant alpha (P10415 whole entry, change not shown): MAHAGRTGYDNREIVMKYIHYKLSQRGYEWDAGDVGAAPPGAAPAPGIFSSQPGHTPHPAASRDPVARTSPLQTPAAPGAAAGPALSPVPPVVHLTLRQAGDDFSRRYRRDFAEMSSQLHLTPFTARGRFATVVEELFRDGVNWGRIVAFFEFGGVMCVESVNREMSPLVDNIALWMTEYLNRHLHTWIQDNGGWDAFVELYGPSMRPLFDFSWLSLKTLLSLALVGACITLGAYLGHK

[9] = target: T9, C-X-C motif chemokine receptor 4, transcript variant 2 (human, UniProt P61073 1-352)
T9 construct: also called CXCR4
T9 sequence (P61073 whole entry, change not shown): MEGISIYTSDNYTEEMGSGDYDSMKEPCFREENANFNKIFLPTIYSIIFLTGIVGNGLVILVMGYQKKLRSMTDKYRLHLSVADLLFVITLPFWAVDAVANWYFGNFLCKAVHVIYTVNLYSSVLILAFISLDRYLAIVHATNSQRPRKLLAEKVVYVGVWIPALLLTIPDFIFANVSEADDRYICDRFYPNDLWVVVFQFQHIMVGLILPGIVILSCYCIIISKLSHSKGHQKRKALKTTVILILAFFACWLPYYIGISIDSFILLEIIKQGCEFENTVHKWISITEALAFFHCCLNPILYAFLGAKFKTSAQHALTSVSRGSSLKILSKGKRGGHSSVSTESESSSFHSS

[10] = target: T10, Long intergenic non-protein coding rna 242 (human, UniProt Q5T6M2 1-205)
T10 construct: also called LINC00242
T10 chain: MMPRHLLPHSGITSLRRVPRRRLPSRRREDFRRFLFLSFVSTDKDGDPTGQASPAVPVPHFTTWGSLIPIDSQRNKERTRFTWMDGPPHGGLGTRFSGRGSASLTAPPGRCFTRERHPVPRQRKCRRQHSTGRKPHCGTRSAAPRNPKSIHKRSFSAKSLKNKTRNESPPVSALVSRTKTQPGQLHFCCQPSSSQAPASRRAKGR

[11] = target: T11, calcium and integrin binding 1, transcript variant b (human, UniProt Q99828 2-191)
T11 construct: also called CIB1
T11 sequence: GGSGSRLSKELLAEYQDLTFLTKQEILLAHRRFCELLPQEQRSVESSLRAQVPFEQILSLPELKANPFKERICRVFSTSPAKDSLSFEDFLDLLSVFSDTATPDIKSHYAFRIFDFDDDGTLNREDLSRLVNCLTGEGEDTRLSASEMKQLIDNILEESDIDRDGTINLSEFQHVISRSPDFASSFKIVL

[12] = target: T12, Transforming growth factor beta 3 (human, UniProt P10600 24-412)
T12 construct: also called TGFB3
T12 sequence: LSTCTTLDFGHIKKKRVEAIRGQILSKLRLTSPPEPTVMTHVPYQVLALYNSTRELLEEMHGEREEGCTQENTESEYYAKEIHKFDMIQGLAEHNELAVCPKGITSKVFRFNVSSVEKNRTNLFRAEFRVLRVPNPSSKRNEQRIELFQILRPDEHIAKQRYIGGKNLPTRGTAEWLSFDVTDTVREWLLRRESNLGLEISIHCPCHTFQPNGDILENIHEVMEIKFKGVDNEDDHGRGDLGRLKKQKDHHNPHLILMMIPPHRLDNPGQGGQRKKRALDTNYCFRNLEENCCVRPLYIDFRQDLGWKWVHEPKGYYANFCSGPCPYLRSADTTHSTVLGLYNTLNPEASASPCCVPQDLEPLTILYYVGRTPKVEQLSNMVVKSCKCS

B2: TSTO1005 (antibody, V domains shown)
VH: EVQLVESGGGVVQPGGSLRLSCAASGFTFEDFGMHWVRQAPGKGLEWVAFTRFDGSEKYYVDSVKGRFTVSRDNSKNTLFLHMNSLRPEDTAVYYCAKTRSYSSADTTRPNAPGYWGQGTLVTVSS
VL: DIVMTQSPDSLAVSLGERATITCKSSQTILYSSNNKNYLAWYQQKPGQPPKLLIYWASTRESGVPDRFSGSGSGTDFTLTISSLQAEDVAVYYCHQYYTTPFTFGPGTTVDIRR
- binding result [4]: binds
- binding result [5]: binds

B5: TSTO1008 (antibody, V domains shown)
VH: AVQLVQSGAEVKKPGESLRISCKGSGYSFSTYWIIWVRQMPGKGLEWIGRFDPSDSYNVNSPSFQGHVTISADTSINTAYLQWSSLKASDSAMYYCARRSDKAVPGTFDQWGQGTLVTVSS
VL: RSVLTQPPSVSAAPGQKVIISCSGSSSNIGNNYVSWYQQFLGTAPKLLIYDTDKRPSGIPDRFSGSKSGTSATLGITGLQTGDEAHYYCATWDSSLRAGPVVFGGGTKLTVLG
- binding result [7]: binds

B7: TSAR1006 (antibody, V domains shown)
VH: QVQLVQSGTEVKKPGASVKVSCKASGYRFTSNGISWVRQAPGQGLQWMGWISTDSGNTNYAQSFQGRVTLTRDTSTNTAYLELRRLRSEDTAVYYCARDKSWYFDYWGQGTLVSVSS
VL: SYELTQPPSVSVSPGQTARITCSGDALPKKYVFWYQQRSGQAPVLVIYEDSKRPSGIPDRFSGSSSGTLATLTISGAQVEDEADYYCYSTDTIGNWVFGGGTRLTVL
- binding result [9]: binds
- binding result [10]: binds

B8: TSTO1001 (antibody, V domains shown)
VH: VVQLLESGGGLVHPGGSLRISCAASEFTFSAYAMTWVRQAPGKGLEWVSAISGSGGRTYYADSLKGRFTISRDNSKHTLYLLMNSLRVEDTAVYYCASRYRSPSGAFDIWGQGTLVTVSS
VL: EIVMTQSPATLSVSQGERATLSCRASQSVGSDLAWYQQKPGQAPRLLIYDASARATDIPARFSGSGSETEFTLTISSLQSEDFAVYYCQHYSDWRALTFGGGTKVEIKR
- binding result [11]: binds

B9: TSTO1003 (antibody, V domains shown)
VH: QVQLKQSGGGVVQPGRSLTLSCVASGLTFSDYGMHWVRQAPGKGLEWVAVIWHDGSKTNYADSVKGRIIISRDNSKSTVYLQMNRLRGEDTAVYYCATSHGGLVPGGENYWGQGTLVTVSS
VL: SDELTQPPSVSVSPGQTARITCSGDALAKEYAYWYQQKSGQAPVLVISKDTERPSGIPARFSGSSSGTTVTLTISGVQSDDEADYYCQSADSSLTYWLFGGGTKLTVLR
- binding result [12]: binds

More lines, now with the values ahead:

- binding result [1]: binds
- binding result [2]: binds
- binding result [3]: binds
B1: TSAR1005 (antibody, V domains shown)
VH: QVQLVESGGGVVQPGRSLRLSCVASGFTFSNYAMHWVRQAPGKGLEWVAVIWYDGSNEYYRDSVEGRFTISRDSSKNTLYLLVNSLRAEDTAVYYCARGNGPKSGKYSDFDYWGQGTLVTVSS
VL: DVVMTQSPLSLPVTLGQAASISCRSSQSLVYSDGNTYLNWFQQRPGQSPRRLIYKVSNRESGVPDRFSGSGSGTDFTLQISRVEAEDVGIYYCMQGAHWPPITFGQGTRLEIKR

- binding result (chymotrypsinogen B2): binds
B3: TSTO1004 (antibody, V domains shown)
VH: QVQLVQSGSELKKPGASVKVSCTSSGYVFTSFGVSWVRQVPGQGPEWMGWISPYTRQTKYAQSLQGRITLTADTSTNTTYMELRSLRSDDTAMYYCVREEFGVVRGPNPFDVWGQGTMVTVSS
VL: DIQMTQAPSTLSASVGDRVSITCRASQNIRDFLAWYQQKPGRAPDLLIYRASTLEKGVSARFSGSGSGTEFTLTITGLQPDDFATYYCQQYSDYSTFGGGTRVEIK

- binding result [6]: binds
B4: TSTO1002 (antibody, V domains shown)
VH: EVQLVESGGGLVKPGGSLRLSCAASGFTFSNAWMNWVRQTPGKGLEWVGRIKTKTDGGTTDYAEPVKGRFTISRDDSKNTLYLQMNSLKTEDTAVYYCTRGAVADYWGQGTQVTVSS
VL: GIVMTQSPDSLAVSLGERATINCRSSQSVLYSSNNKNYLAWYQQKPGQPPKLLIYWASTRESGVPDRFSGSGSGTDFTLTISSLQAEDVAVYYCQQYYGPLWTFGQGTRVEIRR

- binding result [8]: binds
B6: TSTO1010 (antibody, V domains shown)
VH: EVQLVESGGGLVKPRGSLRLSCAASGFTFSAYGMNWVRQAPGKGLEWVSSISGDSRDIYYGASMKGRFTISRDNAKSSLYLQMNSLRAEDTAVYYCARGEGGELWAFDYWGLGVLVTVSS
VL: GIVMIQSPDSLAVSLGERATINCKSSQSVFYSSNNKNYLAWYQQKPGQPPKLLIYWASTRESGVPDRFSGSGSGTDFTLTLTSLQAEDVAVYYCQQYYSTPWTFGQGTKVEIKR
